Target: T1, purified, catalytically-active recombinant human p85α:p110α heterodimer (human, UniProt P27986 1-724; P42336 1-1068)
T1 construct: human PI3K regulatory subunit p85α; human PI3K catalytic subunit p110α; also called recombinant human PI3K; purified recombinant PI3K protein; source: bought: SignalChem (co-expression in Sf9 cells, >90% pure)
Assay: pull-down; purified recombinant human PI3K (1 µg) with GST or GST-Ad9 E4-ORF1 on glutathione-sepharose beads; immunoblot with p85α and p110α antibodies
Conditions: both partners purified

T1 sequence (P27986 whole entry, chain 1 of 2): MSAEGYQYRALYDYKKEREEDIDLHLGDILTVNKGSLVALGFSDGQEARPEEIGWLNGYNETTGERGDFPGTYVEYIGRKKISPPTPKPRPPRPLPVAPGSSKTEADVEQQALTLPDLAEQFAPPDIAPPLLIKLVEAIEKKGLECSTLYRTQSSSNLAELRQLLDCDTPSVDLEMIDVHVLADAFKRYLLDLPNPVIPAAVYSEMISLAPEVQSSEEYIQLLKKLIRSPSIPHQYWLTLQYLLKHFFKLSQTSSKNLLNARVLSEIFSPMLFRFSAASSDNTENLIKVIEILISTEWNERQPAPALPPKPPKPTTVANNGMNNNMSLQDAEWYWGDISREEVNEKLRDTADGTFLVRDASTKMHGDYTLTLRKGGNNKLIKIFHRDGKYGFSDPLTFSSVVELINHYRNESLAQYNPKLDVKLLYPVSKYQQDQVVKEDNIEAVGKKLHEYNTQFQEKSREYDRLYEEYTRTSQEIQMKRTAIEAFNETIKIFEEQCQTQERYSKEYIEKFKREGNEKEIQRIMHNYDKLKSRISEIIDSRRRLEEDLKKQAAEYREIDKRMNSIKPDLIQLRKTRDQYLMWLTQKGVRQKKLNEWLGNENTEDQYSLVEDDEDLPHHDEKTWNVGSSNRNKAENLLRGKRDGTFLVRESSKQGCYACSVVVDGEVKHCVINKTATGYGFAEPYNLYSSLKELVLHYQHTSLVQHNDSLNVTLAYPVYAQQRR
T1 sequence (P42336 whole entry, chain 2 of 2): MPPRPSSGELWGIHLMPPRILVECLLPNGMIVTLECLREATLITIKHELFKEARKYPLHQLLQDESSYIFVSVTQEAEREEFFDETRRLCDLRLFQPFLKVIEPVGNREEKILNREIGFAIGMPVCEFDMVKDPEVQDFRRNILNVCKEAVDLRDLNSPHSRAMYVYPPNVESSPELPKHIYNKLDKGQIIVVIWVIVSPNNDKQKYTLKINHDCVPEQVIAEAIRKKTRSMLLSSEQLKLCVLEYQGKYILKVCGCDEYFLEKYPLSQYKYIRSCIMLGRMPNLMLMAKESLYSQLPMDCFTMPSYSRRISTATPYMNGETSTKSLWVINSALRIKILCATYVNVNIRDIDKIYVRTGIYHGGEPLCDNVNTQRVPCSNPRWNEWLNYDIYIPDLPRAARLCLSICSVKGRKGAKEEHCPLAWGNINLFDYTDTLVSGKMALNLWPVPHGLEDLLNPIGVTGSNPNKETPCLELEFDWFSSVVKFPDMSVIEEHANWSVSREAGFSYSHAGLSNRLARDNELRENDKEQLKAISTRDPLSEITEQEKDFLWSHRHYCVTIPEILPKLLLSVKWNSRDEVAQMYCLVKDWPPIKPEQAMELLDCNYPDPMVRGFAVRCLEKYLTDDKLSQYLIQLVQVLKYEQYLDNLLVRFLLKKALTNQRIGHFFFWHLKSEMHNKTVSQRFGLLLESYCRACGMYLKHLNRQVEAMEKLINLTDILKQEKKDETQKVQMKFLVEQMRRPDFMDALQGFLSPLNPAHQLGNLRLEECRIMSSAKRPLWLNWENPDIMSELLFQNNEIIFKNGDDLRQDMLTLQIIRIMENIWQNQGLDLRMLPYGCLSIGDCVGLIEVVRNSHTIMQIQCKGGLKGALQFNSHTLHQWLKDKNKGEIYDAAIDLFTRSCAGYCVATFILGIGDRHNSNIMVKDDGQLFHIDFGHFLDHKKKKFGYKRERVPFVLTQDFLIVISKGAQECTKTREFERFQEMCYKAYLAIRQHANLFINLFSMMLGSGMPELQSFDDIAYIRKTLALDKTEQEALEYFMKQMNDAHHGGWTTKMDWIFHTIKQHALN

B1: GST-Ad9 E4-ORF1 fusion protein (natural protein)
chain: MAESLYAFIDSPGGIAPVQEGTSNRYTFFCPESFHIPPHGVVLLHLKVSVLVPTGYQGRFMALNDYHARDILTQSDVIFAGRRQELTVLLFNHTDRFLYVRKGHPVGTLLLERVIFPSVKIATLV
notes: Human adenovirus type 9 (Ad9) E4-ORF1 protein, wild type; also called GST-E4-ORF1; glutathione S-transferase (GST) fused to Ad9 E4-ORF1; source: bacterially expressed fusion protein (plasmid pGEX-2TK with wt E4-ORF1 cDNA), on glutathione-sepharose beads
Q: Does B1 bind?
A: Result: binds
